Experimental findings from a protein production outcome set (Wang et al. 2014) are described below.
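Also: failed if final PepcDB status was selected cloned or expressed and not failed if soluble or beyond.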

The data set can be described thus: label from the status in PepcDB records.
Consider “MAGAGGGNDIQWCFSQVKGAVDDDVAEADIISTVEFNHSGELLATGDKGGRVVIFQQEQENKIQSHSRGEYNVYSTFQSHEPEFDYLKSLEIEEKINKIRWLPQKNAAQFLLSTNDKTIKLWKISERDKRPEGYNLKEEDGRYRDPTTVTTLRVPVFRPMDLMVEASPRRIFANAHTYHINSISINSDYETYLSADDLRINLWHLEITDRSFNIVDIKPANMEELTEVITAAEFHPNSCNTFVYSSSKGTIRLCDMRASALCDRHSKLFEEPEDPSNRSFFSEIISSISDVKFSHSGRYMMTRDYLSVKIWDLNMENRPVETYQVHEYLRSKLCSLYENDCIFDKFECCWNGSDSVVMTGSYNNFFRMFDRNTKRDITLEASRENNKPRTVLKPRKVCASGKRKKDEISVDSLDFNKKILHTAWHPKENIIAVATTNNLYIFQDKVN”, for which the protein production entry is “failed”.

On to “MAGAITLACTIRFEANAEHVYLSSGTKQTVYHYPFPMSTIHITLNGERKEVPAGSTVSELLVIADADRQPVAVVVNEHIVRPDQRDSYILQERDQVEILVFAGGGLEHHHHHH”, for which the protein production entry is “not failed”.

For “MAGASHDIHPPKVEYFDLRDHTNTDPKGFVRHVDHYRVEPWGLYMARTSDHPQFHYLESWLLPDLGLRASIFHYHPYHQRDQDHYVDIGTFTRGDDVWKSEDHYLDLVVRTGRDTELLDVDELMEAHTTGLLDTATAEQAILTATTAIDGIAAHGHDLGRWLASIGMPIDWR”, the protein production result is recorded as “not failed”.

As to “MAGATDRDGWKVERGDDSWTVPGYIDLKKLGKGGAGRVMIARHAGTGRNVAIKYLNEELCSKVEFRTALRAEARLLGGLTSPHVTRLYEYVEAEQGAAIVMELVYGAALRTLLKKEGSTDIEAALVVLKGSLLGLAAAHGVGVVHRDYKPENVLVNWDGQTKLVDFGISARTGDRHNLRGTCAYMPPEQWKLEAATPAGDVYAATATLYECVTGVRPFEGPEPWDFQRQHVDEPVPMDRVPEEVRALVRHGMAKDPALRPPSALDFLRELEWAAENAYGPDWEERGQSRLAAVAAALVPLAISRLDARLVGSSAELARTVLTARRRSRLRRRGDVLTGAAAVAVVGLLSLMPSGWAAGGAEGHAGAHAQAVTRLDARKDTGSATEARGTEHGDTAESDPDSDRAGTSGAQGGGGHGDGGAGLAPADGGTRSDSGSGGGAGDSGTDSPDDGNNTVERNGGTENGGTENGGTENGGTENGGTENGGTENGGTENGGTENGGTENGGTENGGTENGGTENGGTENGGTENGGTENGGTENGGTENGGTENGGTENGGTENGGTENGGTENGGTENGGTENGGTENGGTENGGTDNGGTDNGGTDNGGTDARHGHSNAGTSDGDPASTGGTDSGNSAGGTGTGTGSGSTSAVTPRQGDPAAVEGEPG”, the protein production result is listed as “failed”.

With “MAGEDSFERIALEWHARHMANKSESHATKTLERLRKDVFPWIGNRPVREITAPELLSVLRRIESRGAIELCHVTKRICGQVMRYAIATGRAERDPAADLKGALQPVKARHLEHHHHHH”, the protein production entry was “failed”. Next, “MAGENFATPFHGHVGRGAFSDVYEPAEDTFLLLDALEAAAAELAGVEICLEVGSGSGVVSAFLASMIGPQALYMCTDINPEAAACTLETARCNKVHIQPVITDLVKGLLPRLTEKVDLLVFNPPYVVTPPQEVGSHGIEAAWAGGKNGREVMDRFFPLVPDLLSPKGLFYLVTIKENNPEEILKIMKTKGLQGTTALSRQAGQETLSVLKFTKS”: “failed”; “MAGGTKRLPRAVREQQMLDAAVDVFSDRGFHETSMDAIAAKAEISKPMLYLYYGSKDELFAACIQREGLRFVEALAPAGDPGLSPREQLRRALEGFLGFVGKHRKSWMVLYRQAMGQQAFVGSVQSSRDRLIELTAHLLESSTKDPEPGQDFELIAIALVGAGEAVADRVAGGEIEVDAAADLLESLAWRGLAGKKKPE”: “not failed”; “MAGGYGVRSPGPCVQCLARPMTTPFWPGRERCASLASRDAFAARLFKRQKMESFLVSTGIVALAEMGDKTQLLSLVLAARYRKPIPIILGILIATLVNHGFAGALGGWITGMVGVDLLRWILGLGFIAMAGWMLIPDKLDDAEEAKPVKGALGILGTTIIAFFFAEMGDKTQIATVALAARFHGEVIAVVAGTTFGMMLANAPAVLLGDRFANKMPIALVHKIAAAIFLVLGLLALFNVGG”: “failed”. “MAGLVKKTTGLVGLAVCDTPHERLTILYTKILDLLKHFPKHAAYRKYTEQITSEKLELVKLEPDVKKLENLLQGGEVEEVILQAEKELSLARKMLQWKPWEPLVEEPPANQWKWPI”: the protein production entry was “failed”. As for “MAGRFAPRPPRAVVRDGIPRQALAPGRVRVWAPDGPLDVGLVLGPLRRGPGDPTFRTMPDGSVWRTGRTPAGPGTLRVTARGGEVRGEAWGPGAEWLLERLPLMLGAEDDPSAFVPRHRLLAVTAHRRPGLRLTRTGLVLESLIPSILEQKVTTLEAYQAWRLLVRKFGEPAPGPAPGRMCVMPAARTWALIPSWEWHLAGVDDKRASTVLRAVRVAARLEEAAGMEPAAARERLELVPGVGPWTSAETVQRSHGAPDAVTVGDLHLPGIVGFALGGDRYADDAEMLRLLEPYAGQRHRAARLVLLSGRVPERRAPRMAPRGIERL”, the entry is “failed”; as for “MAGTSQMNNGRSWMQGEKMIPNKDDAEEFANKAKNAVNSGDYDGAIADIERAIKASPRSVPYHLIKADALYRKGDYEDALDVLNFAETIEKNNPELLSLKSICYGSLGKFNESKIEATKAIKADPNYPFAYYNRAKAEQYLEEYDIAKKDLQKYLEMQPNDPDAYMDLADMEYHEGDYKKALQHVNTAIKKDKESTDAHDLKLNILLAQKDIENYLKELLEAFKDTEDFKYIGTLVETLKSVGSFDTAEDILKEFIKIYKDEPFLYDALARVYYDQDRKDDAYRTYEELLKSNDDREAKIYWFDFLLDDGSYDRLIGEIEKSGLKDDEVLEIKYIAEDQKGDHKAALSTADDLLKLDRTPYNTSLYGSQLRKLGRLDESIKALSEFDDDPDVAYELFLAYMDRGDVHSASKYLKTSIENSEDDDDVISNVLEGVSKMMDHSDFQSVNDFLDGLGKENDNLYILTEAMHAINSGVFEGYEKGKEKFLGLDEHKEEVCEFANNIVELTEGKAKAFLEKFIEDNCGENEMEE”, “failed”. As for “MAGWGIRSITGTSKLRAAMLLVVVGLLSVSGWLQRLDWLVYDEIISRQSFQPDSDIVIVAIDEESLRTIGKWPWSRELHAGLIDRLSQIGSNVVALDLLLSEPDVDHPEADKRLKTAIFTHGNVVLPVAPAQNASGDRFSLIQPLASLQRRATLGHVDVELDRDGVARRTFLYAGIDIPAFPALGLALADKGSLPNRMRLLSRMPEADKTIVNTGNSWVRSREIMVPFAGPPGTYPRISYARLLNDDDLLDDLRGKIIIVGMTATGLQQGFLTPVSLTRHNYMSGVEWHASVVDMLRNGRSIYPVPEMVAIAVTVLWVLAVLLVVNIVPGRFRSLVLLVSLAAGIGLVTMLLGVFHIWLPPGVALIGTLAVYPLQSWQRINEFIQSQFITGSCLQAVFDSVQEGVITVDAKGNILYLNQESERILGARSEQLIGKPLEQLIGVCLIPDKQDRDVNGSGSADTRPDSRIQHCVLTLPSGDRRTIRVTHRALYDRWRIPAGAVVTISDISDTLEMKQQIARQANYDVLTMLPSRNFLLSRFGELAVSARQHGAALIVCLVSVDNFSKINDAFGYHSGDALLKMIADRLLKLVCSEDLIARWSGDEFMLVVDRPVREGQELQFARKVQETINRRFEINGQEVFISASIGIRISSQPDQVDEKSEIFLDEAVSAMRRVKRQGGNGFQFYASGQMNAWTREQLEFERDFRLAIENQDKALHVLFQPIVDVQQKRVVHNEVLVRWAHPTRGLLSPGDFIPLAERVGLIGQLGDLVLWISCRIAADLAKVGQAVDISVNVASRQLLHPDFLQKVAGVLERTGLPAGRLMLEITESAVISDLPRAAEALVRLKALGVAIALDDFGTGYSSLSLLRELPLDILKIDKSFIQGIEQDHPGDEKFDFAIARAIIALGDNLGLGVIAEGVETEKHMEFLRKHHCYLQQGYYFSRPLSTTQLMQFMGRPDSIRV”, the entry is “failed”. Regarding “MAHHHHHHMAITLPKLKYALNALSPHISEETLSFHYNKHHAGYVNKLNGLIKDTPLANKSLTDILKESTGAIFNNAAQIWNHSFYWDSMGPNCGGEPHGEIKEKIQEDFGSFNNFKDQFSNVLCGHFGSGWGWLALNKNNKLVILQTHDAGNPIKENTGIPILTCDVWEHAYYIDYRNDRLSYVKAWWNLVNWNFANENLKNALNK”, the protein production result is “not failed”.

As for “MAHIFVYGTLKRGQPNHKVMLDHSHGLAAFRGRGCTVESFPLVIAGEHNIPWLLYLPGKGHCVTGEIYEVDEQMLRFLDDFEDCPSMYQRTALQVQVLEWEGDGDPGDSVQCFVYTTATYAPEWLFLPYHESYDSEGPHGLRYNPRENR”, the protein production result is recorded as “not failed”.
